From patent US20150322137A1 (EVEC, published 2015) come the findings set out here.

What all share (test): cell-based or functional assay
For assay [1], the target named is T1, F protein of human metapneumovirus strain JPS05-21 (type B2), on infectious virus (human metapneumovirus, strain JPS05-21 …).
The target of assay [2] is T2, F protein of human metapneumovirus strain JPS02-76 (type B1), on infectious virus (human metapneumovirus, strain JPS02-76 …, UniProt Q6WB98 19-539).
Assay [3] concerns the target T3, F protein of human metapneumovirus strain JPS03-180 (type A1), on infectious virus (human metapneumovirus, strain JPS03-180 …).
In assay [4] the target is T1, F protein of human metapneumovirus …. The source holds these as a separate data set.
The target of assay [5] is T2, F protein of human metapneumovirus …. This is another data set of the same source.
In assay [6] the target is T4, F protein of human metapneumovirus strain JPS03-178 (type A2), on infectious virus (human metapneumovirus, strain JPS03-178 …).
Assay [7] addresses T3, F protein of human metapneumovirus …. This is another data set of the same source.
Assay [8] concerns the target T1, F protein of human metapneumovirus …. The source holds these as a separate data set.
The target in assay [9] is T4, F protein of human metapneumovirus …. The source holds these as a separate data set.
In assay [10] the target is T3, F protein of human metapneumovirus …. The source holds these as a separate data set.
Assay [11] addresses T2, F protein of human metapneumovirus …. This is another data set of the same source.
In assay [12] the target is T1, F protein of human metapneumovirus …. This is another data set of the same source.
For assay [13], the target named is T2, F protein of human metapneumovirus …. This is another data set of the same source.
Assay [14] has as its target T4, F protein of human metapneumovirus …. This is another data set of the same source.
For assay [15], the target named is T3, F protein of human metapneumovirus …. The source holds these as a separate data set.

B1: EV046141 (antibody, human IgG1, lambda, V domains shown)
VH: QVQLVQSGAEVKKPGASVKVSCKASGYTFADYYIHWLRQAPGQGLEWLGRINPSNSRTTYPQKFQGRVTVTRDTSTSTVYMELSSLRSADTAVYYCARDGLRMGYYYMDVWGKGTTVTVSS
VL: QSVLTQPPSVSGAPGQRVTISCTGSSSNIGAGYDVHWYQQIPGTAPKLLIFGNYNRPSGVPDRFSASKSGTSASLAITGLQAEDEAHYYCQSYDTTLDGAVFGGGTKLTVLG
Regarding B1, the “IC50, neutralizing activity (hMPV infection of LLC-MK2 cells)” value (from here on “IC50 … (hMPV infection of LLC-MK2 cells)”) in [1] was 0.44 mg/L; in assay [2] it was 0.74 mg/L; in assay [3], 0.2 mg/L. Further, the “IC60, neutralizing activity (hMPV infection of LLC-MK2 cells; GraphPad Prism 6)” value (shortened to “IC60, neutralizing activity”) in assay [4] came out at 0.571 mg/L; in assay [5], 0.883 mg/L; in assay [6], 2.18 mg/L; in assay [7], 0.276 mg/L. The “IC50, neutralizing activity (hMPV infection of LLC-MK2 cells; GraphPad Prism 6)” value in assay [8] was determined as 0.524 mg/L; in assay [9], 2.11 mg/L; in [10], 0.213 mg/L. The “IC50, cell-to-cell spread inhibitory activity (LLC-MK2 cells stably expressing TMPRSS2)” value in [11] was determined as 0.0363 mg/L. Further, in assay [11], the “IC90, cell-to-cell spread inhibitory activity (LLC-MK2 cells stably expressing TMPRSS2)” value turned out to be 0.171 mg/L. Moreover, the “IC90, neutralizing activity (hMPV infection of LLC-MK2 cells; GraphPad Prism 6)” value (shortened to “IC90, neutralizing activity”) in assay [12] was 0.836 mg/L; in assay [13], 2.18 mg/L; in assay [14] it was 2.52 mg/L; in assay [15] it was 0.863 mg/L.

B2: EV046147 (antibody, human IgG1, lambda, V domains shown)
VH: QVQLVQSGAEVKKPGASVKVSCKASGYTFSVYGISWVRQAPGHGLEWMGWISAYNGDRGYAQKVQGRITMTTDTSASTAYMELRSLTSDDTAVYYCATTSSGVPGIYWGQGSLVTVSS
VL: SYALVQPPSVSVSPGQTARITCFGPALPKKYAYWYQHKSGQAPMLVIYEDTKRPSGIPQRFSGSTSGATATLTIRGAQVEDEADYYCYSTDSSGHERVFGGGTKLTVLG
Regarding B2, the “IC50 … (hMPV infection of LLC-MK2 cells)” value in assay [1] is 0.27 mg/L; in assay [2], 0.39 mg/L; in [3], 0.31 mg/L. Moreover, the “IC60, neutralizing activity” value came out at 0.298 mg/L in assay [4], 0.514 mg/L in assay [5], 2.06 mg/L in [6] and 0.406 mg/L in assay [7]. The results for the “IC50, neutralizing activity (hMPV infection of LLC-MK2 cells; GraphPad Prism 6)” value in assay [8], in assay [9] and in assay [10] were 0.253 mg/L, 1.98 mg/L and 0.326 mg/L, respectively. For the same molecule, the “IC50, cell-to-cell spread inhibitory activity (LLC-MK2 cells stably expressing TMPRSS2)” value in assay [11] stood at 0.114 mg/L. For the same molecule, in assay [11], the “IC90, cell-to-cell spread inhibitory activity (LLC-MK2 cells stably expressing TMPRSS2)” value is 0.506 mg/L. Moreover, the “IC90, neutralizing activity” value in [12] turned out to be 0.612 mg/L; in assay [13], 1.18 mg/L; in assay [14] it was 2.41 mg/L; in assay [15] it was 1.07 mg/L.

B3: EV046150 (antibody, human IgG1, kappa, V domains shown)
VH: RVQLVQSGAEVKKPGSSVRVSCKASGGTFSNYSISWVRQVPGQGLEWMGRIIPILPLSSYPQQFQGRVAITADKSSTTAYMELSSLRIEDTAIYYCARDALRPEGGYYYYYFDVWGTGTTVTVSS
VL: EIELTQSPGTLSLSPGERATLSCRANQIIGDTSLAWYQQKPGQAPRLLIFGASSRATGIPDRFSGSGFGSDFTLTITSLEPEDFAVYYCQQYGSSPTFGQGTKVEIKR
For the molecule B3, the “IC50 … (hMPV infection of LLC-MK2 cells)” value in assay [1] amounted to 0.18 mg/L; in assay [2] it was 0.3 mg/L; in [3], 0.049 mg/L. Further, the “IC60, neutralizing activity” value in [4] stood at 0.229 mg/L; in [5], 0.36 mg/L; in assay [6], 0.0373 mg/L; in assay [7], 0.0823 mg/L. Further, the “IC50, neutralizing activity (hMPV infection of LLC-MK2 cells; GraphPad Prism 6)” value in assay [8] was 0.202 mg/L; in assay [9] it was 0.0298 mg/L; in assay [10], 0.0618 mg/L. The “IC50, cell-to-cell spread inhibitory activity (LLC-MK2 cells stably expressing TMPRSS2)” value in assay [11] was found to be 0.0166 mg/L. For the same molecule, the “IC90, cell-to-cell spread inhibitory activity (LLC-MK2 cells stably expressing TMPRSS2)” value in [11] amounted to 0.065 mg/L. In addition, the “IC90, neutralizing activity” value in assay [12] was found to be 0.404 mg/L; in assay [13], 0.663 mg/L; in assay [14], 0.101 mg/L; in [15], 0.292 mg/L.

B4: EV046143 (antibody, human IgG1, kappa, V domains shown)
VH: QVQLVQSGAEVQKPGSSVKVSCKTSGDTFNNYALSWVRQAPGQGPEWMGRIIPLVEMANYAQKFQGRVTITADKSTTTIYMELSSLRSEDTAMYYCARDGYQGGFPYFFDSWGQGTLVTVSS
VL: EVVLTQSPGTLSLSPGERATLSCRASQSVSNYLAWYQQKPGQAPRLLISAASSRATGIPDRFGGSGSGADFTLTISRLEPEDFAVYYCQQYGFSPGTFGQGTKVEIRR
Consider B4, for which the figures for the “IC50 … (hMPV infection of LLC-MK2 cells)” value in assay [1], in assay [2] and in assay [3] were 0.27 mg/L, 0.46 mg/L and 0.13 mg/L, respectively. Also, the “IC60, neutralizing activity” value was determined as 0.363 mg/L in assay [4], 0.627 mg/L in assay [5], 0.0266 mg/L in [6] and 0.186 mg/L in assay [7]. Moreover, the figures for the “IC50, neutralizing activity (hMPV infection of LLC-MK2 cells; GraphPad Prism 6)” value in assay [8], in assay [9] and in assay [10] were 0.272 mg/L, 0.0198 mg/L and 0.157 mg/L, respectively. For the same molecule, the “IC50, cell-to-cell spread inhibitory activity (LLC-MK2 cells stably expressing TMPRSS2)” value in assay [11] is 0.0572 mg/L. Moreover, the “IC90, cell-to-cell spread inhibitory activity (LLC-MK2 cells stably expressing TMPRSS2)” value in assay [11] is 0.886 mg/L. Further, the “IC90, neutralizing activity” value in [12] turned out to be 1.29 mg/L; in assay [13], 0.735 mg/L; in assay [14], 0.0967 mg/L; in [15] it was 0.402 mg/L.

B5: EV046142 (antibody, human IgG1, lambda, V domains shown)
VH: QVQLVQSGAEVKKPGSSVRVSCKASGGTFSTYGINWVRQARGQGLEWMGTVIPTFEKTYYAQGFQGRVTIAADGSKNTVYMELRRLTSEDSAIYFCTRFFTPYCSGGSCYLDLWGPGTLVTVSS
VL: QSVLTQPPSVSGAPGQSVTISCAGSSSNIGAGYDVHWYQHLPGTAPRLLIYSNTNRPSGVPDRFSGSKSGASASLAITGLQAEDEADYYCQSYDSGVVFGGGTKLTVLR
As to B5, the “IC50 … (hMPV infection of LLC-MK2 cells)” value in assay [1] amounted to 0.22 mg/L; in assay [2], 0.42 mg/L; in assay [3] it was 0.22 mg/L. Besides, the “IC60, neutralizing activity” value in assay [4] was determined as 0.366 mg/L; in assay [5] it was 0.641 mg/L; in [6], 0.0971 mg/L; in assay [7] it was 0.243 mg/L. The “IC50, neutralizing activity (hMPV infection of LLC-MK2 cells; GraphPad Prism 6)” value stood at 0.273 mg/L in [8], 0.0614 mg/L in [9] and 0.212 mg/L in assay [10]. The “IC50, cell-to-cell spread inhibitory activity (LLC-MK2 cells stably expressing TMPRSS2)” value in assay [11] is 0.0123 mg/L. For the same molecule, the “IC90, cell-to-cell spread inhibitory activity (LLC-MK2 cells stably expressing TMPRSS2)” value in [11] came out at 0.0664 mg/L. Further, the “IC90, neutralizing activity” value was 1.35 mg/L in assay [12], 1.57 mg/L in [13], 0.738 mg/L in [14] and 0.443 mg/L in assay [15].
